According to patent US6383734B1, “Method to determine inhibition of PAK3 activation of Raf-1” (Advanced Research and Technology Institute, Inc., priority 1998, dated 2002):

Test system: Raf-1 serine 338/339
Test: In vitro kinase assay with Raf-1 peptide and Raf-CR3 as substrates
Format: biochemical, human
Conditions: PAK3 immunoprecipitated from rat spleen lysates, FIG. 4b
Protocol: B. Kinase assays. Kinase samples were assessed for their ability to phosphorylate 500 μM Raf-1 peptide (33,[…]345) (SEQ ID NO:4) in the presence of 500 μMATP (containing 2 μCi [γ-^32P]-ATP at 30° C. for 10 minutes. Incubations were analyzed by P-81 phosphocellulose paper assay. Phosphorylation of serine 338/339 in Raf-CR3 was determined by similar incubations containing 1 μg of substrate at 30° C. for 30-60 minutes. Proteins were resolved by SDS-PAGE, transferred to Immobilon-P and the dried, Ponceau S-stained membranes were autoradiographed. Raf-1 kinase activity was measured by the coupled assay method using GST-Mek 1, GST-Erk1 and myelin basic protein by the method of D. Stokoe et al., Science, 264, 1463 (1994).
D. Expression of recombinant Raf-CR3 in E. Coli. DNA sequences encoding residues 307-648 of human c-Raf-1 were amplified by polymerase chain reaction using the 5′-primer […] (SEQ ID NO:5) and the 3′-primer […] (SEQ ID NO:6). The amplified DNA was purified, digested with EcoRI and XhoI and cloned into the Stratagene pCAL-n vector. The entire Raf-CR3 coding sequence was verified by termination reaction PCR DNA sequencing. Raf-CR3 D338E339 and A338A339 substitution mutants were generated by site-directed mutagenesis using the Promega Altered SitesTM in vitro mutagenesis system. Raf-CR3-calmodulin binding protein fusions were expressed in E. coli strain BL21 (pLysS). […]

B1: Immunoprecipitated PAK3: full-length PAK3 immunoprecipitated directly from rat spleen lysates with an anti-PAK3 antibody (protein)
chain: SDNGELEDKPPAPPVRMSSTIFSTGGKDPLSANHSLKPLPSVPEEKKPRNKIISIFSSTEKGSKKKEKERPEISPPSDFEHTIHVGFDAVTGEFTGMPEQWARLLQTSNITKLEQKKNPQAVLDVLKFYDSNTVKQKYLSFTPPEKDGFPSGTPALNTKGSETSAVVTEEDDDDEDAAPPVIAPRPDHTKSIYTRSVIDPIPAPVGDSNVDSGAKSSDKQKKKAKMTDEEIMEKLRTIVSIGDPKKKYTRYEKIGQGASGTVFTATDVALGQEVAIKQINLQKQPKKELIINEILVMKELKNPNIVNFLDSYLVGDELFVVMEYLAGGSLTDVVTETCMDEAQIAAVCRECLQALEFLHANQVIHRDIKSDNVLLGMEGSVKLTDFGFCAQITPEQSKRSTMVGTPYWMAPEVVTRKAYGPKVDIWSLGIMAIEMVEGEPPYLNENPLRALYLIATNGTPELQNPEKLSPIFRDFLNRCLEMDVEKRGSAKELLQHPFLKLAKPLSSLTPLILAAKEAMKSNR
- phosphate incorporated into wild type Raf-CR3 versus Raf-CR3[D338E339] or Raf-CR3[A338A339] mutants: 4 fold
